Assay [1] addresses PARP1 (Homo sapiens) (UniProt P09874). The note with it: cited from earlier work.
In assay [2] the target is PARP2 (Homo sapiens) (UniProt Q9UGN5). Particulars: cited from earlier work.
Assay [3] has as its target Recombinant wild-type murine PARP2 (murine) (UniProt O88554).
Assay [4] concerns the target Recombinant wild-type human PARP1 (human) (UniProt P09874).

Where “and” joins values, the source holds several entries; their conditions need not be identical. Equal values may be shown once.

UniProt Q9UGN5, sequence (Q9UGN5 whole entry): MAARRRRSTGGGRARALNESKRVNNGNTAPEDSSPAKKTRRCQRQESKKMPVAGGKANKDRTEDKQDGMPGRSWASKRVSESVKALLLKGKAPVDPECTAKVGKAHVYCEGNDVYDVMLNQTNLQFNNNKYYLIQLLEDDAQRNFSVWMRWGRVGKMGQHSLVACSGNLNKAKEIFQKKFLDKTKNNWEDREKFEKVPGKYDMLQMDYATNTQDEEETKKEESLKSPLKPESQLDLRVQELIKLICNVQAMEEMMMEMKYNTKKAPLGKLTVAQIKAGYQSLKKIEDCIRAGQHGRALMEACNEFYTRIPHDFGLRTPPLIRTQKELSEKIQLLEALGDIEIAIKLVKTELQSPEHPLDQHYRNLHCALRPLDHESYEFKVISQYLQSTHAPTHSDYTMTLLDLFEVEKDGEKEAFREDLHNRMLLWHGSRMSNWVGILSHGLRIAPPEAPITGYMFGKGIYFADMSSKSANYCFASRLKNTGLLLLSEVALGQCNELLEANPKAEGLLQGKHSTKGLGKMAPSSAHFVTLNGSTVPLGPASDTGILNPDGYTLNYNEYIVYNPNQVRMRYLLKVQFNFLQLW
UniProt O88554, sequence (O88554 whole entry): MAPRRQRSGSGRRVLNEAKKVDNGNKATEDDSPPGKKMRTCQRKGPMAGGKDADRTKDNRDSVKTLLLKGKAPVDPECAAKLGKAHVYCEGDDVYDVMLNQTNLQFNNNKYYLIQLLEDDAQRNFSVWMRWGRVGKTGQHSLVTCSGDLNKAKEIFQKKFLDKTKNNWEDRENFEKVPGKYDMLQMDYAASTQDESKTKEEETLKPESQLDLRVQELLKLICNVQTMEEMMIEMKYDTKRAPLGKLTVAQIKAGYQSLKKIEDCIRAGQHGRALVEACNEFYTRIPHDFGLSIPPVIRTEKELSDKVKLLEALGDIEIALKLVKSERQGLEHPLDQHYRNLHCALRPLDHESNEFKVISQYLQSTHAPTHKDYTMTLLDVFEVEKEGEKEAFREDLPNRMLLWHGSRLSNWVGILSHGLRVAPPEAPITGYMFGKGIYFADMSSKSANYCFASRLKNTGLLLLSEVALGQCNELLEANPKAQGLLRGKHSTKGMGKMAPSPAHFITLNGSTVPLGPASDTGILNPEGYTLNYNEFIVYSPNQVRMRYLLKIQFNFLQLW

In the case of HPF1 (from UniProt Q9NWY4), the Kd in assay [1] was > 3000 nM and 790 nM; in assay [2], 280 nM.

B1: histone PARylation factor 1 (HPF1), recombinant human (natural protein)
chain: MVGGGGKRRPGGEGPQCEKTTDVKKSKFCEADVSSDLRKEVENHYKLSLPEDFYHFWKFCEELDPEKPSDSLSASLGLQLVGPYDILAGKHKTKKKSTGLNFNLHWRFYYDPPEFQTIIIGDNKTQYHMGYFRDSPDEFPVYVGINEAKKNCIIVPNGDNVFAAVKLFLTKKLREITDKKKINLLKNIDEKLTEAARELGYSLEQRTVKMKQRDKKVVTKTFHGAGLVVPVDKNDVGYRELPETDADLKRICKTIVEAASDEERLKAFAPIQEMMTFVQFANDECDYGMGLELGMDLFCYGSHYFHKVAGQLLPLAYNLLKRNLFAEIIEEHLANRSQENIDQLAA
Take B1: the DNA-independent autoPARylation level of PARP2 (500 nM, 1 uM [32P]NAD+, no DNA or NCP) with HPF1 from 60 nM to 16 uM, relative to no HPF1; maximal effect (at a 4-fold excess of HPF1) in assay [3] was 2.4 fold. In addition, the DNA-independent autoPARylation level of PARP1 (500 nM, 1 uM [32P]NAD+, no DNA or NCP) with HPF1 from 60 nM to 16 uM, relative to no HPF1; maximal effect in assay [4] is 1.6 fold.
